Reference: paper PMC5595295 (Acta Pharmaceutica Sinica. B, 2017)
Changes are numbered by the printed parent chain. Names may count otherwise. One block for each binder: values may come before it.

Molecular target: hA3G-HA (human, UniProt Q9HC16 1-384)
Experiment: co-IP

percent inhibition of binding to wild type hA3G (co-IP, band quantification): ~80%
B1: hA3G W127A-EYFP (natural protein, human, UniProt Q9HC16 1-384, looked up)
chain: MKPHFRNTVERMYRDTFSYNFYNRPILSRRNTVWLCYEVKTKGPSRPPLDAKIFRGQVYSELKYHPEMRFFHWFSKWRKLHRDQEYEVTWYISWSPCTKCTRDMATFLAEDPKVTLTIFVARLYYFADPDYQEALRSLCQKRDGPRATMKIMNYDEFQHCWSKFVYSQRELFEPWNNLPKYYILLHIMLGEILRHSMDPPTFTFNFNNEPWVRGRHETYLCYEVERMHNDTWVLLNQRRGFLCNQAPHKHGFLEGRHAELCFLDVIPFWKLDLDQDYRVTCFTSWSPCFSCAQEMAKFISKNKHVSLCIFTARIYDDQGRCQEGLRTLAEAGAKISIMTYSEFKHCWDTFVDHQGCPFQPWDGLDEHSQDLSGRLRAILQNQEN

percent inhibition of binding to wild type hA3G (co-IP, band quantification): < 50%
B2: hA3G Y124A-EYFP (natural protein, human, UniProt Q9HC16 1-384, looked up)
chain: B1 chain with Y124A, A127W
